*: point of attachment. MTSL = MTSL nitroxide spin label (R1), CC1(C)C=C(CS*)C(C)(C)N1[O]

The assay addresses T1, ATP7B metal binding domains 4-6, spin-labeled (human, UniProt P35670 356-633, MTSL nitroxide spin label (R1) on C358, C431 and C490).
T1 construct: No residue limits are printed; the printed primers translate to a start at GTCSTTL and an end at FHASLAQ followed by a stop codon; Printed mass 29.2 kDa; also called MBD4-6; ATP7B 4-6 domains; source: E. coli Origami 2, purified (chitin bead column, intein self-cleavage with DTT)
T1 sequence (looked up): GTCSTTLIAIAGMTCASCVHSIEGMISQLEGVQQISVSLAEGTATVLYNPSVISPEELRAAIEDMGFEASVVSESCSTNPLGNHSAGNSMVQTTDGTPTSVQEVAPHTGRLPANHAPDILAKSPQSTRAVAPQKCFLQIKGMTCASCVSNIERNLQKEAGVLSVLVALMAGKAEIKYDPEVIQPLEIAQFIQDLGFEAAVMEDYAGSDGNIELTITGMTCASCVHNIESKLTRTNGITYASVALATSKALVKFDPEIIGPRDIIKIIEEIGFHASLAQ
As to the kind of experiment: CW-EPR of spin-labeled proteins; X-band, room temperature (292 ± 5 K), in solution; Atox1 or sl-Atox1 added to spin-labeled MBDs at 1:1 (Atox1:MBD); with and without Cu(I); spin-labeled protein 0.01-0.03 mM. The settings on record: both partners purified.

B1: Atox1 metallochaperone, wild-type, non spin-labeled (natural protein, human)
chain: MPKHEFSVDMTCGGCAEAVSRVLNKLGGVKYDIDLPNKKVCIESEHSMDTLLATLKKTGKTVSYLGLE
notes: Atox1 copper metallochaperone, human, wild type
Regarding B1, the binding result is “binds”.

B2: Atox1 metallochaperone, spin-labeled at C41 (natural protein, human)
chain: MPKHEFSVDMTCGGCAEAVSRVLNKLGGVKYDIDLPNKKVC(MTSL)IESEHSMDTLLATLKKTGKTVSYLGLE
notes: Atox1 copper metallochaperone, human; also called sl-Atox1; spin-labeled Atox1
In the case of B2, the binding result is “binds”.
